Results: article PMC314469, “Protein Interaction Networks by Proteome Peptide Scanning” (PLoS Biology, 2004)

biological target: Sho1 SH3 (SHO1_YEAST), P40073; test: SPOT array
Sequence (P40073 295-366): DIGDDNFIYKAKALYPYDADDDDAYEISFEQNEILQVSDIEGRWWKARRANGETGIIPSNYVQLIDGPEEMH

Binder | normalised SPOT signal, Boehringer light units (BLU); mean over the file's lines of this peptide
SHLPLIPEKIKSLK [203-216 similar to E. coli DinB and S. cerevisiae REV1] | 175
RERPLEPPRKPMAS | 554
QPAPRIPSKDAIIS [100-113 transcription factor] | 498
QEKPLTPLKYTKLI [160-173 subunit of the chromatin remodeling Snf/Swi complex] | 143
SASPTLPTRRSRRL [62-75 Hypothetical ORF] | 212
SKFPELPSKVHNAV [141-154 methionyl tRNA synthetase] | 124
PVYPSLPERSKVIL [44-57 telomere binding protein] | 210
QLFPVRPVRVRHED [198-211 " RNA polymerase III (C) subunit, homologus to human BN51 protein"] | 95.2
SALPILPKREVVTR [19-32 soluble cell wall protein] | 141
SDLPSSPIKAPNVE [232-245 DNA replication helicase] | 191
RPTPRKPSRMATDH [8-21 Transmembrane osmosensor] | 1440
QSQPPRPPRPAANL [24-37 Hypothetical ORF] | 128
SASPYRPQRLPAKF [13-26 Hypothetical ORF] | 118
QGLPASPSRAALRY [55-68 chitin synthase 2] | 140
QGEPLDPKRPSTAS [141-154 glucosidase I] | 124
QYYPEEPTKPTVKT [6-19 gamma-aminobutyrate (GABA) transaminase (4-aminobutyrate aminotransferase)] | 111

Binder | normalised SPOT signal, Boehringer light units (BLU); mean over the file's lines of this peptide
PPEPATPSKKSLTT [169-182 origin recognition complex subunit 2] | 46
QGYPRQPQRPQRYH [27-40 "heat shock protein similar to HSP26, involved in cytoskeleton assembly"] | 195
QKTPPSPAKPKQKT [26-39 Component of the exocyst complex; homolog in rat brain called rExo84.] | 203
PNYPDSPPKVTFIS [66-79 Similar to ubiquitin conjugating protein family] | 187
RNEPVKPFRNIDLK [29-42 delta-1-pyrroline-5-carboxylate dehydrogenase] | 87.5
RKRPAPPKKKAPST [82-95 ISWI One Complex] | 208
RIPPTVPSKIIDVV [7-20 Hypothetical ORF] | 521
RLIPTSPQKTNINT [14-27 Hypothetical ORF] | 85.2
RPSPWLPSKPNSYH | 1300
QIFPKKPLRRTVMS [166-179 involved in ion homeostasis] | 534
SELPKSPYRQKPTQ [124-137 " involved in meiosis, nuclear division and spore formation"] | 200
RRKPHSPNKKKPKE [12-25 Hypothetical ORF] | 173
SGKPLFPGRDYHHQ [221-234 MAP protein kinase homolog involved in pheromone signal transduction] | 103
RRGPGRPRKDASTS [204-217 nuclear protein involved in silencing] | 998
RGTPANPGRVATLI [47-60 Hypothetical ORF] | 123
QNTPPLPPKPKSPH [175-188 homologous to mouse and human Tsg101 tumor susceptibility genes] | 8430

Further lines, results first:

normalised SPOT signal, Boehringer light units (BLU); mean over the file's lines of this peptide | Binder
159 | QGQPLPPPRGQVIL [287-300 Hypothetical ORF]
544 | SLPPTPPYKAHKKK [353-366 Hypothetical ORF]
61.3 | QTSPGQPRKGQNGS [427-440 soluble tyrosine-specific protein phosphatase]
149 | RVHPEPPNKPGITT [407-420 Hypothetical ORF]
126 | RAVPILPPRNNVEP [543-556 Hypothetical ORF]
135 | SDKPLTPTKTSSTL [341-354 DNA Damage Inducible; binds to T- and V- snare complexes]
261 | PPPPPPPSRKSGTP [477-490 Hypothetical ORF]
233 | SGKPKKPYRRWTPE [666-679 negative regulator of prp genes]
91.3 | SLAPVYPLKSLLRI [665-678 Hypothetical ORF]
144 | PNSPTPPLKSKVSR [1337-1350 transcriptional regulator]
190 | QRHPKSPVKKPMTS [878-891 involved in bud site selection]
117 | RPPPLTPEKNLYLT [258-271 Putative participant in 3' mRNA processing]
1130 | SKIPMLPSRRTMAG [505-518 Meiotic regulatory protein; Cys-His zinc fingers]
46.5 | QLLPNVPDKVLVPG [391-404 binds to single-stranded TG1-3 telomere G-tails]
1610 | SKGPRTPAKEILEF [310-323 " similar to Est1, which is a putative component of telomerase"]
39.1 | QSNPTSPTKQTFTI [600-613 BEM1-binding protein]
5820 | PVGPKVPAKEPSPK [874-887 Hypothetical ORF]
75.1 | SAFPQSPIRAYGST [1382-1395 negative regulator of early meiotic genes]
65.5 | SHQPYLPIKNKNIV [329-342 Hypothetical ORF]
144 | PPVPKAPSRRSSSL [943-956 negative regulator of early meiotic gene expression]
99.9 | RPNPTQPRKPLDSK [776-789 vacuolar import degradation]
334 | SMYPGLPSRLEKEL [307-320 actin-related protein]
178 | PSNPALPKKLLNVP [345-358 negative regulator of early meiotic genes]
304 | QYIPPPPPKYINSK [482-495 Ume6p is a C6 zinc finger URS1-binding protein.]
118 | QDSPDMPEKESVYV
57.6 | QLTPLLPDKYFDSA [693-706 putative transcription factor]
157 | SEEPTSPTRQVNPE [443-456 Putative participant in 3' mRNA processing]
